Test results published in paper PMC8265659.

Columns and labels:
[1] = target: T1, PorX-C-His6 (Porphyromonas gingivalis (33277?)) (UniProt B2RJJ3); assay: DNase I footprinting; conditions: EMSA: 10 mM Tris-HCl pH 7.5, 1 mM EDTA, 5 mM DTT, 10 mM NaCl, 1 mM MgCl2, 5% glycerol, room temperature, 30 min
T1 sequence: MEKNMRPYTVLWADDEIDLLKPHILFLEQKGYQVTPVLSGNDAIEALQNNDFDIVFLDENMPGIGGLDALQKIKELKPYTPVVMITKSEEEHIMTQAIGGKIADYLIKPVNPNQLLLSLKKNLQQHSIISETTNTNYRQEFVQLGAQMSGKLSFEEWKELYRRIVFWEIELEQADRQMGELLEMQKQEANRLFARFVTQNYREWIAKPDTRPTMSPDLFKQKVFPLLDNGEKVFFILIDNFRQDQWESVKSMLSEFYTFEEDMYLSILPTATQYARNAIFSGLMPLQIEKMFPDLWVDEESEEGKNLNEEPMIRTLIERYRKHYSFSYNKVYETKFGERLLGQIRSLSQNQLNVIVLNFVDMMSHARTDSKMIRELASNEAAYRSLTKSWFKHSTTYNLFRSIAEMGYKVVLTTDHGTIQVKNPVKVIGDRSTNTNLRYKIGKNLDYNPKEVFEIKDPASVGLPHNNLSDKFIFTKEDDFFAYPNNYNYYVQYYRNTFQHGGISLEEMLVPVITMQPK

[2] = target: T1, PorX-C-His6 (Porphyromonas gingivalis (33277?)); assay: EMSA; conditions: EMSA: 10 mM Tris-HCl pH 7.5, 1 mM EDTA, 5 mM DTT, 10 mM NaCl, 1 mM MgCl2, 5% glycerol, room temperature, 30 min

## CCGAGTACGTTTACCCCGGCCCGATACAGTTCTTCGGCCCCGAACATGTATGCGATAGCCCCACGATGACACTCCGCTTGGAAAAGAACGATCGCTGACTCTTCCGCTGCATTAGTCGGGTTGATAAGCAGTTGCTTCTGTTTGTTTTGTCGAAAAAAATGTTTTTCTTTGCAATAAGTCTCATTTAAAAGAATCGCCTATCGACGCATATCTACCTTCTGAACAATAAATAAAGAGGATTCTCCTATGAGCAGTTTCCACAAGCTGACTGATGA (double strand) [T1 sigP promoter fragment (275 bp)]
[1]
  binding: binds
[2]
  binding: binds
